± gives the standard deviation of the averaged measurements.
System: ATP
Assay: switch fluorescence ratio, 500 uM ATP over buffer (Cy3 cluster intensity, sum of 5 cycles each) (fold (ratio)); higher = stronger signal-on switching upon ATP binding; sequences stand for … in TCGTCGGCAGCGTCAGATGTGTATAAGAGACAGTTTTTTTTTTTTTTTTTTTTTTTTT…TC
Details: aptamer strand: ATP DNA aptamer (quencher-CACCTGGGGGAGTATTGCGGAGGAAGG + anchor), 100 nM annealed; ATP concentration: 500 uM
Summary of the method: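 Between each of five buffer/ATP cycles, the flow-cell was stripped with NaOH and re-annealed. Each cycle imaged Cy3-labelled switching-strand clusters, annealed to 100 nM quencher-labelled ATP aptamer on a modified Illumina MiSeq flow-cell, first in selection buffer and then after 15 min with 500 uM ATP at 22 °C. The fluorescence ratio is summed target-cycle over summed buffer-cycle Cy3 intensity per cluster, averaged per switch-domain sequence, with clusters outside 100-1000 RFU excluded.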
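Also: ATP exposure 15 min at 22 °C before imaging.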

Sequence	switch fluorescence ratio
CAGGGTGGTA	0.9934 ± 0.0048
CAGGGTGGTC	1.04 ± 0.0048
CAGGGTGTGG	0.976 ± 0.014
CAGGGTGTTG	0.964 ± 0.041
CAGGTAAGCG	0.969 ± 0.051
CAGGTATGT	0.991 ± 0.015
CAGGTCCGGG	1.02 ± 0.018
CAGGTCCTTT	1.01 ± 0.025
CAGGTCGGCT	0.995 ± 0.052
CAGGTGAGAC	1.31 ± 0.04
CAGGTTGGAG	1.15 ± 0.24
CAGGTTTAAA	0.992 ± 0.034
CAGGTTTAAG	0.975 ± 0.055
CAGTAAAAGT	0.983 ± 0.031
CAGTAAGTCT	1.05 ± 0.076
CAGTAATGTT	0.994 ± 0.033
CAGTAATTGC	1.05 ± 0.023
CAGTAATTGT	0.9856 ± 0.0029
CAGTACCTAA	1.039 ± 0.0019
CAGTACGGTT	1 ± 0.037
CAGTACTGGT	0.99384 ± 0.00024
CAGTAGAATA	1.02 ± 0.022

Sequence	switch fluorescence ratio
CAGTAGTTAT	0.996 ± 0.011
CAGTATCCTT	1.027 ± 0.003
CAGTATCGGA	0.9814 ± 0.008
CAGTATGGTA	1 ± 0.012
CAGTATGTAG	0.957 ± 0.02
CAGTATGTCC	0.966 ± 0.035
CAGTATTAGA	1.003 ± 0.0037
CAGTCCATTA	1.011 ± 0.0093
CAGTCCTGTA	1 ± 0.042
CAGTCGACGG	0.993 ± 0.011
CAGTCGCGTG	0.993 ± 0.018
CAGTGAGACT	1.02 ± 0.037
CAGTGCAGCG	1.06 ± 0.057
CAGTGCGCTT	1.1 ± 0.085
CAGTGGACCG	1.004 ± 0.0011
CAGTGGACGG	0.971 ± 0.042
CAGTGGATCG	1.008 ± 0.0011
CAGTGGCGTA	1.01 ± 0.011
CAGTGTCTGA	1.05 ± 0.037
CAGTGTGTGC	1.03 ± 0.015
CAGTGTTATC	1.01 ± 0.013
CAGTGTTCCG	0.977 ± 0.042

Sequence	switch fluorescence ratio
CAGTTACGAT	1.03 ± 0.032
CAGTTAGTAC	1.1 ± 0.018
CAGTTATAAT	1.04 ± 0.016
CAGTTGGGTT	1.02 ± 0.041
CAGTTGTGGT	0.998 ± 0.011
CAGTTTAAGG	1.01 ± 0.024
CAGTTTGAGT	1.006 ± 0.0014
CAGTTTTGGC	1.01 ± 0.025
CATAAAATCG	0.9666 ± 0.0091
CATAAAGGAT	0.97 ± 0.011
CATAACTAAA	1 ± 0.012
CATAACTATT	0.989 ± 0.015
CATAAGCCTC	1.03 ± 0.056
CATAAGGCTC	1 ± 0.02
CATAATATTA	0.9698 ± 0.0032
CATAATCGCA	1.04 ± 0.021
CATACACCTT	1.21 ± 0.032
CATACCGGGG	1.025 ± 0.0049
CATACTTCAT	1.049 ± 0.0063
CATAGAAAAT	0.965 ± 0.0069
CATAGAAGCT	0.976 ± 0.048
CATAGAATTT	0.978 ± 0.084

Sequence	switch fluorescence ratio
CATAGATCTG	1.01 ± 0.028
CATAGATGTC	0.989 ± 0.063
CATAGCCTAA	1.008 ± 0.0031
CATAGGAGGG	0.977 ± 0.056
CATAGGATTG	1.0163 ± 0.00094
CATAGGGTTC	0.9954 ± 0.0089
CATAGTTCTG	0.981 ± 0.028
CATATCCAGG	1.34 ± 0.017
CATATCCCCT	1.03 ± 0.045
CATATCGCCC	1.06 ± 0.039
CATATGGGGC	1.048 ± 0.00092
CATATGTTGA	0.975 ± 0.026
CATATTATGG	0.981 ± 0.036
CATATTTTAG	0.989 ± 0.032
CATCAATAAT	1.045 ± 0.0083
CATCGACTGG	0.965 ± 0.017
CATCGAGAGG	1.01 ± 0.019
CATCGAGTGT	1.05 ± 0.029
CATCGCAAAG	4.33 ± 0.46

Source: the supplement of paper PMC10126150
